{"source": "patent US9309303B2", "about": "“Complexation of fatty acid-conjugated molecules with albumin” (The University of the Sciences in Philadelphia, priority 2007, dated 2016)", "key": {"[1]": {"tested_on": "HeLa cells", "assay": "transfection of HeLa cells with peptides in the presence of HSA", "format": "cell-based", "conditions": "250 pmol peptide, 250 pmol HSA", "protocol": "Fatty acid-conjugated faTraF peptides and non-conjugated faTraE peptides (250 pmol) were added to separate batches of HeLa cells (24-well plate with 250 μl of EMEM medium). 250 Pmol of HSA was added to the incubation of some wells, but not others. Cells incubated in the presence of HSA and the fatty-acid conjugated peptides were transfected."}, "[2]": {"assay": "esterase assay, p-nitrophenyl acetate hydrolysis", "format": "biochemical", "conditions": "5 μM p-nitrophenyl acetate, 40 μg protein, pH 7.4, 37° C., 390 nm", "protocol": "The reaction of p-nitrophenyl acetate hydrolysis-mediated by rHSA and RGD-rHSA was assessed spectrophotometrically at 390 nm by monitoring the appearance of p-nitrophenol. The reaction mixtures contained 5 μM p-nitrophenyl acetate and 40 μg protein in 67 mM phosphate buffer (pH 7.4). Reactions were performed at 37° C."}, "[3]": {"tested_on": "HeLa cells", "assay": "cellular uptake and/or binding of Rhodamine-labeled rHSAs, fluorescent microscopy", "format": "cell-based", "conditions": "50 pmol labeled rHSA", "protocol": "It has been reported that there is no αvβ3 type of integrin in HeLa cells. Nonetheless, HeLa cells are still able to bind fibronectin. Similar to the cellular uptake experiments for MDA-MB-435S cells, the fluorescent dye labeled rHSAs (50 pmol for rHSA, RGD-rHSA-FN and RGD-rHSA-4C) were added to cultured HeLa cells (with 250 μl EMEM in 24-well plate). Cellular uptake and/or binding was monitored at 1, 4, and 8 hours after washing with fresh non-labeled medium. Cellular uptake and/or binding of albumin was then visualized using fluorescent microscopy."}, "[4]": {"molecular_target": "T1, αvβ3 integrin (Homo sapiens, UniProt P05106+P06756)", "T1 construct": "300 μg MDA-MD-435S (αvβ3 positive) cell extract; endogenous in cells; host or cells: MDA-MB-435S (printed MDA-MD-435S) cell extract", "T1 sequence (P06756 31-889 limits assumed)": "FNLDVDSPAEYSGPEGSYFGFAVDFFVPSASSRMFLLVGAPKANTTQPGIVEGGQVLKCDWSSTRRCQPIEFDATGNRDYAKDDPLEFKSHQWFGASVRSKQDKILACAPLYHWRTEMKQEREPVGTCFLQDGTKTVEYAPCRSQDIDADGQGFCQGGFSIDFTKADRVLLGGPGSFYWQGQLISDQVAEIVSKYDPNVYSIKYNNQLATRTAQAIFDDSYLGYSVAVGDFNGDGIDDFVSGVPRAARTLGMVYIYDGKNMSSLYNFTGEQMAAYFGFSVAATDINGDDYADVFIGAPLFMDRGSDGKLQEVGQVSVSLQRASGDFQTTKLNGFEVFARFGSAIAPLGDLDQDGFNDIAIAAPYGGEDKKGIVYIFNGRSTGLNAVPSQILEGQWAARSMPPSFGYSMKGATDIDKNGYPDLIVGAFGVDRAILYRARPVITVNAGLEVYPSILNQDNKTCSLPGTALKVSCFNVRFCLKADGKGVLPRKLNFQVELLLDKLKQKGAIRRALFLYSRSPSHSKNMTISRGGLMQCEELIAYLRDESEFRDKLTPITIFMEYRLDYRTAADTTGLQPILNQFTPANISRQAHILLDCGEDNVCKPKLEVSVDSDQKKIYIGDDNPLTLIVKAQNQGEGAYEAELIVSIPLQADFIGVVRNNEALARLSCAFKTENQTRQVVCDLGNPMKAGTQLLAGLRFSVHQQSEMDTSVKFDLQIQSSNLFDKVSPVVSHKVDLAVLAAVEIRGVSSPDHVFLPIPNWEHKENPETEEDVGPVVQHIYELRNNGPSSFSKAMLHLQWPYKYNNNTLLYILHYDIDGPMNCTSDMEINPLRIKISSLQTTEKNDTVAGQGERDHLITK", "T1 sequence (P06756 891-1048 partner limits assumed)": "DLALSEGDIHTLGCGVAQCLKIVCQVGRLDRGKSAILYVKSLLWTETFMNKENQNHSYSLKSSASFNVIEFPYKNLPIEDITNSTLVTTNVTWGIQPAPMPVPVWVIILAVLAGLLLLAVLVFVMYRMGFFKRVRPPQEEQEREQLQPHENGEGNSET", "T1 sequence (P05106 27-788)": "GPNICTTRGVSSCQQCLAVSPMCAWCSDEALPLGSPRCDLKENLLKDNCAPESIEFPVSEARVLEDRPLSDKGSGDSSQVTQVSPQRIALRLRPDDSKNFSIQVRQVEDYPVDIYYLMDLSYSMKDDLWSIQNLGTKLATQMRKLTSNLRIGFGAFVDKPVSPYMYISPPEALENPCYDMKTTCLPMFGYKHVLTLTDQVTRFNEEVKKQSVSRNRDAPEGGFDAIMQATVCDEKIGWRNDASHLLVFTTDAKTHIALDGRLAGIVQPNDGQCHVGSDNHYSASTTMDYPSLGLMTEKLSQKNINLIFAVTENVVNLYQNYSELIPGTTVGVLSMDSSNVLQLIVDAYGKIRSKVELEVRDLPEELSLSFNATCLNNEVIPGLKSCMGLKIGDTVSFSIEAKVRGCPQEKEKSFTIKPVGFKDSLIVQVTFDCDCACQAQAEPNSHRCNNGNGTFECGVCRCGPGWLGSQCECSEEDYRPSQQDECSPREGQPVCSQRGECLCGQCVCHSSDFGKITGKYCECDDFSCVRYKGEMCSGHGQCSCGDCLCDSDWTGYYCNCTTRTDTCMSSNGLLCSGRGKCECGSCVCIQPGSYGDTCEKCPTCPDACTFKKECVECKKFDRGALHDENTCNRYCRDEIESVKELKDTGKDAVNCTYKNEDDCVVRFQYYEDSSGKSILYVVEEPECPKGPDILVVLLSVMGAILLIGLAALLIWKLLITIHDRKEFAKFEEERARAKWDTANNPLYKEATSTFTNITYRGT", "assay": "αvβ3 integrin-binding assay (co-immunoprecipitation / Ni2+ pull-down, Western blotting)", "conditions": "co-immunoprecipitation and Western blotting", "quoted_text": "Lanes 3 and 6 each contained mixture of 300 μg MDA-MD435S cell extract and 1.2 μg of RGD-rHSA (wild type HSA). For the convenience of purification and detection, all rHSAs were fused with c-terminal c-myc and His6 tags. For lane 1, 2, and 3, the αvβ3 complexes were immunoprecipitated with anti-αv antibody (CHEMICON, AB1930). rHSAs associated with αvβ3 were detected by anti-c-myc antibody. […] For lane 4,5, and 6, the poly-HIS-tagged rHSAs were pulled down with Ni2+-charged chelating agarose. αvβ3 Associated with rHSAs was detected by anti-αv antibody (CHEMICON, AB 1930)."}, "[5]": {"assay": "solubility of rHSA purified from Pichia pastoris expression system", "format": "physicochemical", "excerpt": "We cloned, expressed and purified this rHSA from a Pichia pastoris yeast rHSA expression system. The protein was soluble and was purified to apparent homogeneity. We confirmed the identity of the purified protein by Western blotting using anti-HSA antibody and anti-c-Myc antibody. The alpha-v-beta-3 integrin binding ability of RGD-HSA was confirmed by co-immunoprecipitation and Western blotting."}, "[6]": {"molecular_target": "HSA (Homo sapiens, UniProt P02768)", "conditions": "25 pmol peptide, 100 pmol defatted HSA, 15 minutes, room temperature", "description": "The reaction mixture was loaded to 0.5×TBE acrylamide gel and separated under 12 mA current."}}, "note": "Ends that are not written are not given here. fluorescein = fluorescein conjugated to the primary amine of the Lys side chain through an MHS ester"}
{"substance": "unmodified peptides: peptide CHLDAHWKG (SEQ ID NO: 58) conjugated with fluorescein at Lys, without fatty acid (CHLDAHWK(fluorescein)G) [reference compound]", "values": [{"measurement": "transfection of HeLa cells", "setting": "[1]", "result": "can not be observed"}]}
{"substance": "RGD-rHSA-FN: rHSA containing fibronectin RGD sequence (CGRGDSPC) in place of residues 53-62 of HSA", "values": [{"measurement": "esterase activity", "setting": "[2]", "result": "comparable"}, {"measurement": "effect of RGD sequence on albumin uptake and/or binding", "setting": "[3]", "result": "mildly stimulated"}, {"measurement": "αvβ3 integrin binding ability / ability to interact", "setting": "[4]", "result": "confirmed"}, {"measurement": "solubility of purified protein", "setting": "[5]", "result": "soluble"}]}
{"substance": "fatty acid-conjugated faTraF peptide: fluorescein-labeled peptide CHLDAHWKG conjugated at Cys thiol with 16-methanethiosulfonyl hexadecanoic acid: HOOC—(CH2)15—S—S-peptide (not fully specified (residue 1); also: fluorescein-labeled (position not given here))", "values": [{"measurement": "transfection of HeLa cells", "setting": "[1]", "result": "transfected"}, {"measurement": "complex with HSA on gel", "setting": "[6]", "result": "clearly observed"}]}
